Data taken from patent publication US20250312499A1, “KISSPEPTIN RECEPTOR (KISS1R) TARGETED THERAPEUTICS AND USES THEREOF” (priority 2024, published 2025).
Numbered stars: 1 amine (or outer) side, 2 acyl side, 3 side chain; on linkers, the order of the positions; unused ones are H or OH. Square brackets hold non-standard residues; d marks the D form. * marks the point of attachment. X2 = 4‑amino‑1‑((3-fluoro-4-methylbenzyl)glycyl)piperidine‑4‑carboxylic acid, Cc1ccc(CN(CC(=O)N2CCC(N[*:1])(C(=O)[*:2])CC2)[*:3])cc1F; DOTA = O=C(O)CN1CCN(CC(=O)O)CCN(CC(=O)*)CCN(CC(=O)O)CC1; Api(1-amidino) = N=C(N)N1CCC(N)(C(=O)O)CC1; Phe(4-CN) = N#Cc1ccc(C[C@H](N)C(=O)O)cc1; HO(CH2CH2O)2CH2CH2CO = O=C(CCOCCOCCO)*; 2Nal = N[C@@H](Cc1ccc2ccccc2c1)C(=O)O; d2Nal = N[C@H](Cc1ccc2ccccc2c1)C(=O)O; 4Pal = N[C@@H](Cc1ccncc1)C(=O)O; d4Pal = N[C@H](Cc1ccncc1)C(=O)O; 4Amb = NCc1ccc(C(=O)O)cc1; APM = not defined here; Ahx = NCCCCCC(=O)O; azaGly = NNC(=O)O

Target: human kisspeptin receptor (KISS1R) (human), Q969F8
Sequence (Q969F8 whole entry): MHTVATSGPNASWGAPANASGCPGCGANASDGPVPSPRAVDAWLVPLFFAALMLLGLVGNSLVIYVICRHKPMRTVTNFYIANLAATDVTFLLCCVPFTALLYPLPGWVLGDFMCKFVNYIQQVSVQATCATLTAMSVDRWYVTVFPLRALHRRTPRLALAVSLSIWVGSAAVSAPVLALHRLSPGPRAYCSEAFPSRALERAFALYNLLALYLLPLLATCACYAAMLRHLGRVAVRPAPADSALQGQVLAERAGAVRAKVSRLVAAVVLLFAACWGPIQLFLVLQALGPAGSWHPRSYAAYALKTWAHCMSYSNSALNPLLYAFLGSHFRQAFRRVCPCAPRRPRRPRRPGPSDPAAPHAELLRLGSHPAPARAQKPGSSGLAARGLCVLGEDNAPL
Assay: radioligand competition, hKISS1R membranes; legend: A is <10 nM

Row | Ki [nM] | Binder
1 | < 10 | {DOTA-Ahx}-[dY][dW]NTF[azaGly]L[X2]W-NH2 (SMILES Cc1ccc(CNCC(=O)N2CCC(NC(=O)[C@H](CC(C)C)NC(=O)NNC(=O)[C@H](Cc3ccccc3)NC(=O)[C@@H](NC(=O)[C@H](CC(N)=O)NC(=O)[C@@H](Cc3c[nH]c4ccccc34)NC(=O)[C@@H](Cc3ccc(O)cc3)NC(=O)CCCCCNC(=O)CN3CCN(CC(=O)O)CCN(CC(=O)O)CCN(CC(=O)O)CC3)[C@@H](C)O)(C(=O)N[C@@H](Cc3c[nH]c4ccccc34)C(N)=O)CC2)cc1F) [Compound 1]
2 | < 10 | {HO(CH2CH2O)2CH2CH2CO}-K(DOTA)NTF[azaGly]L[X2][4Pal]-NH2 (SMILES Cc1ccc(CNCC(=O)N2CCC(NC(=O)[C@H](CC(C)C)NC(=O)NNC(=O)[C@H](Cc3ccccc3)NC(=O)[C@@H](NC(=O)[C@H](CC(N)=O)NC(=O)[C@H](CCCCNC(=O)CN3CCN(CC(=O)O)CCN(CC(=O)O)CCN(CC(=O)O)CC3)NC(=O)CCOCCOCCO)[C@@H](C)O)(C(=O)N[C@@H](Cc3ccncc3)C(N)=O)CC2)cc1F) [Compound 253]
3 | < 10 | {3‑(2-(2-methoxyethoxy)ethoxy)propanoyl}-K(DOTA)NTF[azaGly]L[X2][4Pal]-NH2 [Compound 255]
4 | < 10 | {DOTA-Ahx}-ENTF[azaGly]L[X2]W-NH2 (SMILES Cc1ccc(CNCC(=O)N2CCC(NC(=O)[C@H](CC(C)C)NC(=O)NNC(=O)[C@H](Cc3ccccc3)NC(=O)[C@@H](NC(=O)[C@H](CC(N)=O)NC(=O)[C@H](CCC(=O)O)NC(=O)CCCCCNC(=O)CN3CCN(CC(=O)O)CCN(CC(=O)O)CCN(CC(=O)O)CC3)[C@@H](C)O)(C(=O)N[C@@H](Cc3c[nH]c4ccccc34)C(N)=O)CC2)cc1F) [Compound 238]
5 | < 10 | {DOTA-Ahx}-FGL[X2]Y-NH2 (SMILES Cc1ccc(CNCC(=O)N2CCC(NC(=O)[C@H](CC(C)C)NC(=O)CNC(=O)[C@H](Cc3ccccc3)NC(=O)CCCCCNC(=O)CN3CCN(CC(=O)O)CCN(CC(=O)O)CCN(CC(=O)O)CC3)(C(=O)N[C@@H](Cc3ccc(O)cc3)C(N)=O)CC2)cc1F) [Compound 11]
6 | < 10 | {DOTA-4Amb}-ENTF[azaGly]L[X2][Phe(4-CN)]-NH2 (SMILES Cc1ccc(CNCC(=O)N2CCC(NC(=O)[C@H](CC(C)C)NC(=O)NNC(=O)[C@H](Cc3ccccc3)NC(=O)[C@@H](NC(=O)[C@H](CC(N)=O)NC(=O)[C@H](CCC(=O)O)NC(=O)c3ccc(CNC(=O)CN4CCN(CC(=O)O)CCN(CC(=O)O)CCN(CC(=O)O)CC4)cc3)[C@@H](C)O)(C(=O)N[C@@H](Cc3ccc(C#N)cc3)C(N)=O)CC2)cc1F) [Compound 241]
7 | < 10 | {DOTA-Ahx}-[d2Nal]NTF[azaGly]L[X2][4Pal]-NH2 (SMILES Cc1ccc(CNCC(=O)N2CCC(NC(=O)[C@H](CC(C)C)NC(=O)NNC(=O)[C@H](Cc3ccccc3)NC(=O)[C@@H](NC(=O)[C@H](CC(N)=O)NC(=O)[C@@H](Cc3ccc4ccccc4c3)NC(=O)CCCCCNC(=O)CN3CCN(CC(=O)O)CCN(CC(=O)O)CCN(CC(=O)O)CC3)[C@@H](C)O)(C(=O)N[C@@H](Cc3ccncc3)C(N)=O)CC2)cc1F) [Compound 292]
8 | < 10 | {DOTA}-[dY][2Nal]NTF[azaGly]L[Api(1-amidino)]W-NH2 (SMILES CC(C)C[C@H](NC(=O)NNC(=O)[C@H](Cc1ccccc1)NC(=O)[C@@H](NC(=O)[C@H](CC(N)=O)NC(=O)[C@H](Cc1ccc2ccccc2c1)NC(=O)[C@@H](Cc1ccc(O)cc1)NC(=O)CN1CCN(CC(=O)O)CCN(CC(=O)O)CCN(CC(=O)O)CC1)[C@@H](C)O)C(=O)NC1(C(=O)N[C@@H](Cc2c[nH]c3ccccc23)C(N)=O)CCN(C(=N)N)CC1) [Compound 266]
9 | < 10 | {DOTA-APM}-F[azaGly]L[X2]F-NH2 (reading uncertain) [Compound 245]
10 | < 10 | {DOTA-Ahx}-[d4Pal]NTF[azaGly]L[X2][4Pal]-NH2 (SMILES Cc1ccc(CNCC(=O)N2CCC(NC(=O)[C@H](CC(C)C)NC(=O)NNC(=O)[C@H](Cc3ccccc3)NC(=O)[C@@H](NC(=O)[C@H](CC(N)=O)NC(=O)[C@@H](Cc3ccncc3)NC(=O)CCCCCNC(=O)CN3CCN(CC(=O)O)CCN(CC(=O)O)CCN(CC(=O)O)CC3)[C@@H](C)O)(C(=O)N[C@@H](Cc3ccncc3)C(N)=O)CC2)cc1F) [Compound 295]
11 | < 10 | {1‑hydroxy‑3,6,9,12,15,18,21,24‑octaoxaheptacosan‑27‑oyl}-K(DOTA)NTF[azaGly]L[X2][4Pal]-NH2 [Compound 256]
12 | < 10 | {DOTA-Ahx}-[dY]NTF[azaGly]L[X2][4Pal]-NH2 (SMILES Cc1ccc(CNCC(=O)N2CCC(NC(=O)[C@H](CC(C)C)NC(=O)NNC(=O)[C@H](Cc3ccccc3)NC(=O)[C@@H](NC(=O)[C@H](CC(N)=O)NC(=O)[C@@H](Cc3ccc(O)cc3)NC(=O)CCCCCNC(=O)CN3CCN(CC(=O)O)CCN(CC(=O)O)CCN(CC(=O)O)CC3)[C@@H](C)O)(C(=O)N[C@@H](Cc3ccncc3)C(N)=O)CC2)cc1F) [Compound 291]

Second part, the binder before the results:

Row | Binder | Ki [nM]
13 | {DOTA-4Amb}-[dE]NTF[azaGly]L[X2][Phe(4-CN)]-NH2 (SMILES Cc1ccc(CNCC(=O)N2CCC(NC(=O)[C@H](CC(C)C)NC(=O)NNC(=O)[C@H](Cc3ccccc3)NC(=O)[C@@H](NC(=O)[C@H](CC(N)=O)NC(=O)[C@@H](CCC(=O)O)NC(=O)c3ccc(CNC(=O)CN4CCN(CC(=O)O)CCN(CC(=O)O)CCN(CC(=O)O)CC4)cc3)[C@@H](C)O)(C(=O)N[C@@H](Cc3ccc(C#N)cc3)C(N)=O)CC2)cc1F) [Compound 242] | < 10
14 | {DOTA-APM}-TF[azaGly]L[X2]Y-NH2 (reading uncertain) [Compound 250] | < 10
15 | {DOTA-APM}-NTF[azaGly]L[X2]Y-NH2 (reading uncertain) [Compound 249] | < 10
16 | {DOTA-4Amb}-NTF[azaGly]L[Api(1-amidino)][4Pal]-NH2 (SMILES CC(C)C[C@H](NC(=O)NNC(=O)[C@H](Cc1ccccc1)NC(=O)[C@@H](NC(=O)[C@H](CC(N)=O)NC(=O)c1ccc(CNC(=O)CN2CCN(CC(=O)O)CCN(CC(=O)O)CCN(CC(=O)O)CC2)cc1)[C@@H](C)O)C(=O)NC1(C(=O)N[C@@H](Cc2ccncc2)C(N)=O)CCN(C(=N)N)CC1) [Compound 272] | < 10
17 | {DOTA-APM}-F[azaGly]L[X2][Phe(4-CN)]-NH2 (reading uncertain) [Compound 244] | < 10
18 | {DOTA-4Amb}-NTFGL[X2][Phe(4-CN)]-NH2 (not fully specified) [Compound 240] | < 10
19 | {DOTA-Ahx}-[dY][dW]NTF[azaGly]L[Apc(OMe)][4Pal]-NH2 [Compound 293] | < 10
20 | {HO(CH2CH2O)2CH2CH2CO}-[dK](DOTA)NTF[azaGly]L[X2][4Pal]-NH2 (SMILES Cc1ccc(CNCC(=O)N2CCC(NC(=O)[C@H](CC(C)C)NC(=O)NNC(=O)[C@H](Cc3ccccc3)NC(=O)[C@@H](NC(=O)[C@H](CC(N)=O)NC(=O)[C@@H](CCCCNC(=O)CN3CCN(CC(=O)O)CCN(CC(=O)O)CCN(CC(=O)O)CC3)NC(=O)CCOCCOCCO)[C@@H](C)O)(C(=O)N[C@@H](Cc3ccncc3)C(N)=O)CC2)cc1F) [Compound 254] | < 10
21 | {DOTA-Ahx}-[dW]NTF[azaGly]L[X2][4Pal]-NH2 (SMILES Cc1ccc(CNCC(=O)N2CCC(NC(=O)[C@H](CC(C)C)NC(=O)NNC(=O)[C@H](Cc3ccccc3)NC(=O)[C@@H](NC(=O)[C@H](CC(N)=O)NC(=O)[C@@H](Cc3c[nH]c4ccccc34)NC(=O)CCCCCNC(=O)CN3CCN(CC(=O)O)CCN(CC(=O)O)CCN(CC(=O)O)CC3)[C@@H](C)O)(C(=O)N[C@@H](Cc3ccncc3)C(N)=O)CC2)cc1F) [Compound 290] | < 10
22 | {DOTA-Ahx-4Amb}-[dY][dW]NTF[azaGly]L[Api(1-amidino)]W-NH2 (SMILES CC(C)C[C@H](NC(=O)NNC(=O)[C@H](Cc1ccccc1)NC(=O)[C@@H](NC(=O)[C@H](CC(N)=O)NC(=O)[C@@H](Cc1c[nH]c2ccccc12)NC(=O)[C@@H](Cc1ccc(O)cc1)NC(=O)c1ccc(CNC(=O)CCCCCNC(=O)CN2CCN(CC(=O)O)CCN(CC(=O)O)CCN(CC(=O)O)CC2)cc1)[C@@H](C)O)C(=O)NC1(C(=O)N[C@@H](Cc2c[nH]c3ccccc23)C(N)=O)CCN(C(=N)N)CC1) [Compound 270] | < 10
23 | {DOTA-Ahx}-FGL[X2]W-NH2 (SMILES Cc1ccc(CNCC(=O)N2CCC(NC(=O)[C@H](CC(C)C)NC(=O)CNC(=O)[C@H](Cc3ccccc3)NC(=O)CCCCCNC(=O)CN3CCN(CC(=O)O)CCN(CC(=O)O)CCN(CC(=O)O)CC3)(C(=O)N[C@@H](Cc3c[nH]c4ccccc34)C(N)=O)CC2)cc1F) [Compound 10] | < 10
24 | {3‑(2-(2-methoxyethoxy)ethoxy)propanoyl}-K(DOTA)NTF[azaGly]L[Api(1-amidino)]W-NH2 [Compound 264] | < 10
25 | {DOTA-APM}-F[azaGly]L[X2]Y-NH2 (reading uncertain) [Compound 247] | < 10
